Test system: peptide library, one residue held at a place counted from the S/T acceptor
Assay: relative phosphorylation of the sub-library (ratio to the mean residue at this position); human; higher = residue favoured
Outline: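 Purified recombinant kinases (human or orthologue constructs) were incubated in 384-well plates with biotinylated degenerate peptide sub-libraries, each fixing one residue at one position around a central Ser/Thr. Peptides were at 50 μM, with 50 μM ATP spiked with γ-32P-ATP, for 90 min under kinase-specific conditions. Spots on streptavidin membranes were phosphorimaged and quantified by densitometry. Relative sub-library phosphorylation is a ratio to the mean residue at that position.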

NEK6, construct: Full length, sequence (Q9HC98 whole entry, looked up): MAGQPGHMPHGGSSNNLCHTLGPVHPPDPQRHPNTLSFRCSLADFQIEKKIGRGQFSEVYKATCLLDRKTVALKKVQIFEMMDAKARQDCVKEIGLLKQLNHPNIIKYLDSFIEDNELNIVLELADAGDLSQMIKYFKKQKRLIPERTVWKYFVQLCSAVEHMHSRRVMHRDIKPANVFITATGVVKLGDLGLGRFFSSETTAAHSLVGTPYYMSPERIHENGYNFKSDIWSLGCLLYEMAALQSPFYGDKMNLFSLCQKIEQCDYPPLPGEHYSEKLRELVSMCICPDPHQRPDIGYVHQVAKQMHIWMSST

In the case of “NEK6, construct: Full length (from UniProt Q9HC98)”, the relative phosphorylation (A fixed, at +1) is reported as 0.844, the relative phosphorylation (A fixed, at +2) is reported as 1.17 and the relative phosphorylation (A fixed, at +3) is reported as 0.962. The relative phosphorylation (A fixed, at +4) was 0.822, the relative phosphorylation (A fixed, at -1) was 1.21 and the relative phosphorylation (A fixed, at -2) was 1.16. It also gave a relative phosphorylation (A fixed, at -3) of 1.04, a relative phosphorylation (A fixed, at -4) of 1.26 and a relative phosphorylation (A fixed, at -5) of 1.16. It also gave a relative phosphorylation (D fixed, at +1) of 0.481, a relative phosphorylation (D fixed, at +2) of 0.764 and a relative phosphorylation (D fixed, at +3) of 0.624. It also gave a relative phosphorylation (D fixed, at +4) of 0.699, a relative phosphorylation (D fixed, at -1) of 1.47 and a relative phosphorylation (D fixed, at -2) of 2.91. It also gave a relative phosphorylation (D fixed, at -3) of 0.911, a relative phosphorylation (D fixed, at -4) of 2.11 and a relative phosphorylation (D fixed, at -5) of 2.07. For the same substance, the relative phosphorylation (E fixed, at +1) was 0.344, the relative phosphorylation (E fixed, at +2) was 0.325 and the relative phosphorylation (E fixed, at +3) was 0.564. It also gave a relative phosphorylation (E fixed, at +4) of 0.578, a relative phosphorylation (E fixed, at -1) of 1.96 and a relative phosphorylation (E fixed, at -2) of 1.89. For the same substance, the relative phosphorylation (E fixed, at -3) was 0.611, the relative phosphorylation (E fixed, at -4) was 1.18 and the relative phosphorylation (E fixed, at -5) was 1.15. It also gave a relative phosphorylation (F fixed, at +1) of 1.46, a relative phosphorylation (F fixed, at +2) of 0.69 and a relative phosphorylation (F fixed, at +3) of 0.987. For the same substance, the relative phosphorylation (F fixed, at +4) was 0.886, the relative phosphorylation (F fixed, at -1) was 0.525 and the relative phosphorylation (F fixed, at -2) was 0.647. It also gave a relative phosphorylation (F fixed, at -3) of 1.61, a relative phosphorylation (F fixed, at -4) of 0.839 and a relative phosphorylation (F fixed, at -5) of 0.875. It also gave a relative phosphorylation (G fixed, at +1) of 1.02, a relative phosphorylation (G fixed, at +2) of 1.27 and a relative phosphorylation (G fixed, at +3) of 1.69. The relative phosphorylation (G fixed, at +4) was 1.26, the relative phosphorylation (G fixed, at -1) was 0.75 and the relative phosphorylation (G fixed, at -2) was 1.75. The relative phosphorylation (G fixed, at -3) was 1.06, the relative phosphorylation (G fixed, at -4) was 1.13 and the relative phosphorylation (G fixed, at -5) was 1.36. The relative phosphorylation (H fixed, at +1) was 1.2, the relative phosphorylation (H fixed, at +2) was 1.23 and the relative phosphorylation (H fixed, at +3) was 1.13. It also gave a relative phosphorylation (H fixed, at +4) of 1.02, a relative phosphorylation (H fixed, at -1) of 1.13 and a relative phosphorylation (H fixed, at -2) of 0.982. The relative phosphorylation (H fixed, at -3) was 0.792, the relative phosphorylation (H fixed, at -4) was 0.894 and the relative phosphorylation (H fixed, at -5) was 0.979. For the same substance, the relative phosphorylation (I fixed, at +1) was 0.646, the relative phosphorylation (I fixed, at +2) was 0.568 and the relative phosphorylation (I fixed, at +3) was 0.537. For the same substance, the relative phosphorylation (I fixed, at +4) was 0.616, the relative phosphorylation (I fixed, at -1) was 0.434 and the relative phosphorylation (I fixed, at -2) was 0.425. The relative phosphorylation (I fixed, at -3) was 0.495, the relative phosphorylation (I fixed, at -4) was 0.531 and the relative phosphorylation (I fixed, at -5) was 0.632. For the same substance, the relative phosphorylation (K fixed, at +1) was 0.65, the relative phosphorylation (K fixed, at +2) was 1.61 and the relative phosphorylation (K fixed, at +3) was 1.4. The relative phosphorylation (K fixed, at +4) was 1.78, the relative phosphorylation (K fixed, at -1) was 1.22 and the relative phosphorylation (K fixed, at -2) was 0.663. The relative phosphorylation (K fixed, at -3) was 0.48, the relative phosphorylation (K fixed, at -4) was 0.837 and the relative phosphorylation (K fixed, at -5) was 0.849. For the same substance, the relative phosphorylation (L fixed, at +1) was 0.886, the relative phosphorylation (L fixed, at +2) was 0.443 and the relative phosphorylation (L fixed, at +3) was 0.767. It also gave a relative phosphorylation (L fixed, at +4) of 0.593, a relative phosphorylation (L fixed, at -1) of 0.72 and a relative phosphorylation (L fixed, at -2) of 0.612. It also gave a relative phosphorylation (L fixed, at -3) of 2.04, a relative phosphorylation (L fixed, at -4) of 0.735 and a relative phosphorylation (L fixed, at -5) of 0.747. For the same substance, the relative phosphorylation (M fixed, at +1) was 1.57, the relative phosphorylation (M fixed, at +2) was 0.747 and the relative phosphorylation (M fixed, at +3) was 0.704. It also gave a relative phosphorylation (M fixed, at +4) of 0.626, a relative phosphorylation (M fixed, at -1) of 0.859 and a relative phosphorylation (M fixed, at -2) of 0.789. The relative phosphorylation (M fixed, at -3) was 1.2, the relative phosphorylation (M fixed, at -4) was 0.71 and the relative phosphorylation (M fixed, at -5) was 0.753. For the same substance, the relative phosphorylation (N fixed, at +1) was 1.2, the relative phosphorylation (N fixed, at +2) was 1.87 and the relative phosphorylation (N fixed, at +3) was 1.24. For the same substance, the relative phosphorylation (N fixed, at +4) was 0.917, the relative phosphorylation (N fixed, at -1) was 1.38 and the relative phosphorylation (N fixed, at -2) was 1.6. The relative phosphorylation (N fixed, at -3) was 0.869, the relative phosphorylation (N fixed, at -4) was 1.29 and the relative phosphorylation (N fixed, at -5) was 1.16. For the same substance, the relative phosphorylation (P fixed, at +1) was 0.367, the relative phosphorylation (P fixed, at +2) was 0.985 and the relative phosphorylation (P fixed, at +3) was 1.12. It also gave a relative phosphorylation (P fixed, at +4) of 1.4, a relative phosphorylation (P fixed, at -1) of 0.326 and a relative phosphorylation (P fixed, at -2) of 0.521. The relative phosphorylation (P fixed, at -3) was 1.78, the relative phosphorylation (P fixed, at -4) was 1.32 and the relative phosphorylation (P fixed, at -5) was 1.09. The relative phosphorylation (Q fixed, at +1) was 1.68, the relative phosphorylation (Q fixed, at +2) was 0.722 and the relative phosphorylation (Q fixed, at +3) was 1.02. It also gave a relative phosphorylation (Q fixed, at +4) of 1.07, a relative phosphorylation (Q fixed, at -1) of 1.56 and a relative phosphorylation (Q fixed, at -2) of 0.728. For the same substance, the relative phosphorylation (Q fixed, at -3) was 0.62, the relative phosphorylation (Q fixed, at -4) was 0.894 and the relative phosphorylation (Q fixed, at -5) was 0.819. The relative phosphorylation (R fixed, at +1) was 0.986, the relative phosphorylation (R fixed, at +2) was 2.23 and the relative phosphorylation (R fixed, at +3) was 1.4. For the same substance, the relative phosphorylation (R fixed, at +4) was 1.4, the relative phosphorylation (R fixed, at -1) was 1.51 and the relative phosphorylation (R fixed, at -2) was 0.663. For the same substance, the relative phosphorylation (R fixed, at -3) was 0.463, the relative phosphorylation (R fixed, at -4) was 0.869 and the relative phosphorylation (R fixed, at -5) was 0.685. It also gave a relative phosphorylation (V fixed, at +1) of 0.602, a relative phosphorylation (V fixed, at +2) of 0.533 and a relative phosphorylation (V fixed, at +3) of 0.568. It also gave a relative phosphorylation (V fixed, at +4) of 0.707, a relative phosphorylation (V fixed, at -1) of 0.578 and a relative phosphorylation (V fixed, at -2) of 0.436. For the same substance, the relative phosphorylation (V fixed, at -3) was 0.503, the relative phosphorylation (V fixed, at -4) was 0.549 and the relative phosphorylation (V fixed, at -5) was 0.88. It also gave a relative phosphorylation (W fixed, at +1) of 1.5, a relative phosphorylation (W fixed, at +2) of 0.87 and a relative phosphorylation (W fixed, at +3) of 1.38. For the same substance, the relative phosphorylation (W fixed, at +4) was 1.36, the relative phosphorylation (W fixed, at -1) was 0.619 and the relative phosphorylation (W fixed, at -2) was 0.577. For the same substance, the relative phosphorylation (W fixed, at -3) was 1.25, the relative phosphorylation (W fixed, at -4) was 1.1 and the relative phosphorylation (W fixed, at -5) was 1.04. It also gave a relative phosphorylation (Y fixed, at +1) of 1.56, a relative phosphorylation (Y fixed, at +2) of 0.989 and a relative phosphorylation (Y fixed, at +3) of 0.901. The relative phosphorylation (Y fixed, at +4) was 1.27, the relative phosphorylation (Y fixed, at -1) was 0.744 and the relative phosphorylation (Y fixed, at -2) was 0.65. For the same substance, the relative phosphorylation (Y fixed, at -3) was 1.27, the relative phosphorylation (Y fixed, at -4) was 0.75 and the relative phosphorylation (Y fixed, at -5) was 0.767. For the same substance, the relative phosphorylation (pThr fixed, at +1) was 0.602, the relative phosphorylation (pThr fixed, at +2) was 0.396 and the relative phosphorylation (pThr fixed, at +3) was 0.534. For the same substance, the relative phosphorylation (pThr fixed, at +4) was 0.628, the relative phosphorylation (pThr fixed, at -1) was 0.494 and the relative phosphorylation (pThr fixed, at -2) was 0.773. It also gave a relative phosphorylation (pThr fixed, at -3) of 0.677, a relative phosphorylation (pThr fixed, at -4) of 0.906 and a relative phosphorylation (pThr fixed, at -5) of 0.992. It also gave a relative phosphorylation (pTyr fixed, at +1) of 0.822, a relative phosphorylation (pTyr fixed, at +2) of 0.356 and a relative phosphorylation (pTyr fixed, at +3) of 0.653. It also gave a relative phosphorylation (pTyr fixed, at +4) of 0.545, a relative phosphorylation (pTyr fixed, at -1) of 2.57 and a relative phosphorylation (pTyr fixed, at -2) of 1.53. The relative phosphorylation (pTyr fixed, at -3) was 1.01, the relative phosphorylation (pTyr fixed, at -4) was 1.01 and the relative phosphorylation (pTyr fixed, at -5) was 0.799.
